The record followed here is the supplement of paper PMC10567573.

The labels stand for the following.
B1: KRT13 (parent)
chain: TPGIDLTRVLAEMREQYEAMAERN
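Further: lentivirally expressed fusions sorted by FACS into six bins by GFP to DsRed ratio, PSI derived from sequencing read proportions per bin multiplied by bin number.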

This series covers variants of B1. Description: protein stability index of a GFP-peptide fusion (GPS, HEK-293T) (PSI 1-6); higher = more stable. Particulars: c terminus: a fixed tail appended.
Consider TPGIDLTRVLAEMRELYEAMAERN [Q16L], for which the protein stability index came to 2.94.
For the variant TPGIDLTRVLAEMRENYEAMAERN [Q16N], the protein stability index came to 3.8.
The figure for TPGIDLTRVLAEMREDYEAMAERN [Q16D] is 4.61; for TPGIDLTRVLAEMRETYEAMAERN [Q16T] it is 3.39.
The value for TPGIDLTRVLAEMRECYEAMAERN [Q16C] was 4.57; that for TPGIDLTRVLAEMREIYEAMAERN [Q16I] was 3.38; that for TPGIDLTRVLAEMREHYEAMAERN [Q16H] was 3.31.
The value for TPGIDLTRVLAEMREFYEAMAERN [Q16F] was 3.21.
TPGIDLTRVLAEMRERYEAMAERN [Q16R]: the protein stability index amounted to 4.84.
The value for TPGIDLTRVLAEMREVYEAMAERN [Q16V] was 3.82; that for TPGIDLTRVLAEMREWYEAMAERN [Q16W] was 3.73; that for TPGIDLTRVLAEMREPYEAMAERN [Q16P] was 4.08.
On to TPGIDLTRVLAEMREYYEAMAERN [Q16Y], for which the protein stability index turned out to be 4.01.
The value for TPGIDLTRVLAEMREEYEAMAERN [Q16E] was 3.97.
For the variant TPGIDLTRVLAEMREKYEAMAERN [Q16K], the protein stability index was found to be 4.78.
The figure for TPGIDLTRVLAEMRESYEAMAERN [Q16S] is 3.17; for TPGIDLTRVLAEMRCQYEAMAERN [E15C] it is 3.34; for TPGIDLTRVLAEMRYQYEAMAERN [E15Y] it is 2.42.
The value for TPGIDLTRVLAEMRDQYEAMAERN [E15D] was 4.24; that for TPGIDLTRVLAEMRRQYEAMAERN [E15R] was 3.11; that for TPGIDLTRVLAEMRGQYEAMAERN [E15G] was 3.82.
As to TPGIDLTRVLAEMRSQYEAMAERN [E15S], the protein stability index came out at 3.61.
The figure for TPGIDLTRVLAEMRVQYEAMAERN [E15V] is 2.24.
The value for TPGIDLTRVLAEMRIQYEAMAERN [E15I] was 2.85; that for TPGIDLTRVLAEMRFQYEAMAERN [E15F] was 3.26.
As for TPGIDLTRVLAEMRPQYEAMAERN [E15P], the protein stability index was 3.83.
The figure for TPGIDLTRVLAEMRWQYEAMAERN [E15W] is 2.07; for TPGIDLTRVLAEMRMQYEAMAERN [E15M] it is 2.91; for TPGIDLTRVLAEMRKQYEAMAERN [E15K] it is 3.83.
Consider TPGIDLTRVLAEMRQQYEAMAERN [E15Q], for which the protein stability index is 3.28.
The figure for TPGIDLTRVLAEMRAQYEAMAERN [E15A] is 3.47; for TPGIDLTRVLAEMRHQYEAMAERN [E15H] it is 3.45; for TPGIDLTRVLAEMRTQYEAMAERN [E15T] it is 3.43.
The value for TPGIDLTRVLAEMRLQYEAMAERN [E15L] was 3.04; that for TPGIDLTRVLAEGREQYEAMAERN [M13G] was 4.72.
The value for TPGIDLTRVLAERREQYEAMAERN [M13R] was 4.93; that for TPGIDLTRVLAEEREQYEAMAERN [M13E] was 5.33; that for TPGIDLTRVLAEDREQYEAMAERN [M13D] was 5.36.
With TPGIDLTRVLAEYREQYEAMAERN [M13Y], the protein stability index came to 4.11.
The figure for TPGIDLTRVLAEPREQYEAMAERN [M13P] is 3.3; for TPGIDLTRVLAEVREQYEAMAERN [M13V] it is 3.3; for TPGIDLTRVLAESREQYEAMAERN [M13S] it is 4.7.
With TPGIDLTRVLAEQREQYEAMAERN [M13Q], the protein stability index stood at 4.1.
The figure for TPGIDLTRVLAETREQYEAMAERN [M13T] is 4.53; for TPGIDLTRVLAEAREQYEAMAERN [M13A] it is 4.67.
The figure for TPGIDLTRVLAENREQYEAMAERN [M13N] is 5.48; for TPGIDLTRVLAEHREQYEAMAERN [M13H] it is 4.74; for TPGIDLTRVLAECREQYEAMAERN [M13C] it is 4.23.
The value for TPGIDLTRVLAEIREQYEAMAERN [M13I] was 3.71.
Consider TPGIDLTRVLAEKREQYEAMAERN [M13K], for which the protein stability index is 4.24.
On to TPGIDLTRVLAEMREQYEVMAERN [A19V], for which the protein stability index came to 3.23.
The value for TPGIDLTRVLAEMREQYESMAERN [A19S] was 4.53; that for TPGIDLTRVLAEMREQYEYMAERN [A19Y] was 3.76.
The value for TPGIDLTRVLAEMREQYENMAERN [A19N] was 4.28; that for TPGIDLTRVLAEMREQYEKMAERN [A19K] was 3.53; that for TPGIDLTRVLAEMREQYEPMAERN [A19P] was 4.08.
On to TPGIDLTRVLAEMREQYETMAERN [A19T], for which the protein stability index came to 4.16.
The value for TPGIDLTRVLAEMREQYELMAERN [A19L] was 2.92; that for TPGIDLTRVLAEMREQYEIMAERN [A19I] was 3.73.
Consider TPGIDLTRVLAEMREQYEQMAERN [A19Q], for which the protein stability index worked out at 3.48.
The value for TPGIDLTRVLAEMREQYERMAERN [A19R] was 3.57.
The value for TPGIDLTRVLAEMREQYEDMAERN [A19D] was 4.08; that for TPGIDLTRVLAEMREQYEFMAERN [A19F] was 4.13; that for TPGIDLTRVLAEMREQYEGMAERN [A19G] was 4.22.
The figure for TPGIDLTRVLAEMREQYEMMAERN [A19M] is 3.54; for TPGIDLTRVLAEMREQYEHMAERN [A19H] it is 3.71; for TPGIDLTRVLAEMREQYECMAERN [A19C] it is 3.99.
TPGIDLTRVLAEMREQYEWMAERN [A19W]: the protein stability index amounted to 3.4.
The value for TPGIDLTRVLAEMYEQYEAMAERN [R14Y] was 3.61; that for TPGIDLTRVLAEMDEQYEAMAERN [R14D] was 5.07.
The value for TPGIDLTRVLAEMHEQYEAMAERN [R14H] was 3.61.
The value for TPGIDLTRVLAEMLEQYEAMAERN [R14L] was 2.42; that for TPGIDLTRVLAEMNEQYEAMAERN [R14N] was 4.55.
For the variant TPGIDLTRVLAEMVEQYEAMAERN [R14V], the protein stability index worked out at 3.14.
The figure for TPGIDLTRVLAEMSEQYEAMAERN [R14S] is 3.74; for TPGIDLTRVLAEMWEQYEAMAERN [R14W] it is 4.01; for TPGIDLTRVLAEMKEQYEAMAERN [R14K] it is 3.69.
The figure for TPGIDLTRVLAEMQEQYEAMAERN [R14Q] is 4.46; for TPGIDLTRVLAEMAEQYEAMAERN [R14A] it is 2.08; for TPGIDLTRVLAEMPEQYEAMAERN [R14P] it is 4.42.
For TPGIDLTRVLAEMTEQYEAMAERN [R14T], the protein stability index worked out at 4.44.
Turning to TPGIDLTRVLAEMMEQYEAMAERN [R14M], the protein stability index stood at 3.69.
The figure for TPGIDLTRVLAEMCEQYEAMAERN [R14C] is 3.04; for TPGIDLTRVLAEMFEQYEAMAERN [R14F] it is 3.65.
Consider TPGIDLTRVLAEMEEQYEAMAERN [R14E], for which the protein stability index came to 4.28.
The figure for TPGIDLTRVLAEMREQYDAMAERN [E18D] is 4.27.
The value for TPGIDLTRVLAEMREQYSAMAERN [E18S] was 3.96; that for TPGIDLTRVLAEMREQYKAMAERN [E18K] was 3.84.
The figure for TPGIDLTRVLAEMREQYHAMAERN [E18H] is 3.44; for TPGIDLTRVLAEMREQYNAMAERN [E18N] it is 3.5.
As to TPGIDLTRVLAEMREQYCAMAERN [E18C], the protein stability index is 2.93.
The value for TPGIDLTRVLAEMREQYVAMAERN [E18V] was 4.39.
For TPGIDLTRVLAEMREQYFAMAERN [E18F], the protein stability index is 2.84.
The value for TPGIDLTRVLAEMREQYTAMAERN [E18T] was 3.06.
